# Experiments:
# [1] = target: T1, cynomolgus CD3 on HSC-F cells (cynomolgus, UniProt Q95LI5 22-198); assay: flow cytometry, yeast-produced IgG 100 nM on HSC-F cells, pH 6.0
# T1 construct: whole, on cells; also called Cyno HSC-F; cynomolgus HSC-F cells
# Experimental: (§1) Anti-CD3 antibodies Antibody Nos. 1-13 were produced as aglycosylated IgGs comprising a IgG1 Fc region in yeast cells. Binding to human or cynomolgus CD3-expressing cells (human CD3+ Jurkat cells or cynomolgus HSC-F cells, respectively) at pH 7.4 and pH 6.0 were measured by fluorescence-activated single cell sorting (FACS). Normalized cell binding (NCB) values were calculated based on median fluorescence intensity (MFI) values, CD3 negative Jurkat cells were used as a negative control.
# (§2) Cell binding assay, CD3+ and CD3− human Jurkat cells (ATCC) and cynomolgus HSC-F cells (NIH) were thawed and washed with cold PBSF buffer, pH 7.4 (PBS+0.1% BSA, pH 7.4). About 200,000 cells were aliquoted per well of a 96-well plate (FACS Assay Plate VWR BD 353263) and pelleted by centrifugation (5 minutes at 500×g). The cells were washed with either PBSF pH 7.4 or PBSF pH 6.0 (PBS+0.1% BSA, pH 6.0), and then resuspended in 100 μl in either PBSF pH 7.4 or PBSF pH 6.0 with IgG antibody (100 nM) produced in yeast as described above. The mixture (cells+antibody) was incubated for 20 minutes on ice, then washed twice with either PBSF pH 7.4 or PBSF pH 6.0. Cells were resuspended in 50 μl of propidium iodide (Roche; 1:500 dilution) and anti-human IgG-RPE (Southern Biotech; 1:100 dilution) prepared in either PBSF pH 7.4 or PBSF pH 6.0, then incubated for 20 minutes on ice in the dark before cells were washed twice with either PBSF pH 7.4 or PBSF pH 6.0. Binding was analyzed on FACS Canto 11.
# [2] = target: T2, human CD3εδ-Fc heterodimer (Hu CD3ε Fc / CD3δ Fc-HIS) (human, UniProt P04234 22-100); assay: BLI (Octet), yeast-produced IgG on AHC sensor, CD3εδ-Fc 100 nM in solution, pH 7.4
# T2 construct: range 22-100; Produced in HEK 293 cells with a heterologous signal peptide; heterodimer purified by Ni Sepharose and Mono Q; also called Hu CD3εδ Fc heterodimer; CD3εδ Fc-HIS heterodimer; not shown: Fc-HIS part of CD3δ Fc-HIS
# T2 sequence (chain, as listed by the source mutant, form in doubt, chain 1 of 2): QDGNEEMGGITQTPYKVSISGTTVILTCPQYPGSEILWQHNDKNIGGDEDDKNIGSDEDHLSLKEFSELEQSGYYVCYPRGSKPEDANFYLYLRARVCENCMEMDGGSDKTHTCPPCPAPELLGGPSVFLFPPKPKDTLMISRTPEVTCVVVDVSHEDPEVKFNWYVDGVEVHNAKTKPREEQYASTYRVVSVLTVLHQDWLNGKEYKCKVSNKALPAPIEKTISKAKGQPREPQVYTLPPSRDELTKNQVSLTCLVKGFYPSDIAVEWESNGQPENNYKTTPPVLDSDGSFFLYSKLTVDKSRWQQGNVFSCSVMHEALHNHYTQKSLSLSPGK
# T2 sequence (P04234 22-100, stated change not applied, form in doubt, chain 2 of 2): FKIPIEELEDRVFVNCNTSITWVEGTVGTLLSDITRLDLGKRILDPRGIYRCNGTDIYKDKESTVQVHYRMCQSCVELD
# Experimental: (§3) Anti-CD3 antibodies Antibody Nos. 1-13 were produced as human IgG1 antibodies in yeast or CHO cells. IgGs produced in yeast were aglycosylated, CHO) produced IgGs had standard CH2 glycosylation. Binding affinity to human or cynomolgus CD3εδ-Fc at pH 7.4 and pH 6.0 was measured via biolayer interferometry (BLI) using the ForteBio OCTET® HTX system and analyzed using the ForteBio software.
# (§4) Kinetics were analyzed using the 1:1 binding model.
# [3] = target: T3, cynomolgus CD3εδ-Fc heterodimer (Cy CD3ε Fc / CD3δ Fc-HIS) (cynomolgus, UniProt Q95LI8 22-100); assay: as above
# T3 construct: range 22-100; Produced in HEK 293 cells; also called Cy CD3εδ Fc heterodimer; not shown: Fc-HIS part of CD3δ Fc-HIS
# T3 sequence (chain, as listed by the source mutant, form in doubt, chain 1 of 2): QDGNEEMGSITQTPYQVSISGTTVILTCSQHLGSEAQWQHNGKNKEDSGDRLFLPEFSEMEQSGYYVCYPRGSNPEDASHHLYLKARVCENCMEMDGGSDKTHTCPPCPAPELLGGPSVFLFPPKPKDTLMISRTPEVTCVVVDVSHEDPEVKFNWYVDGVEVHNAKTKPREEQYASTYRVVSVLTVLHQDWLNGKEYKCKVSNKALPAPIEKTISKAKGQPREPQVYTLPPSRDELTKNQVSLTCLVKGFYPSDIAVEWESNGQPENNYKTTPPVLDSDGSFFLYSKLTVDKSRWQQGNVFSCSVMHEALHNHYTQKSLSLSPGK
# T3 sequence (Q95LI8 22-100, stated change not applied, form in doubt, chain 2 of 2): as the sequence (P04234 22-100, stated change not applied, form in doubt, chain 2 of 2) above, with I5V, N15K, I20V, S32T, D33N, I34N, T64A, S74N counted along it
# Experimental: as §3, §4
# [4] = target: T1, cynomolgus CD3 on HSC-F cells; assay: flow cytometry, yeast-produced IgG 100 nM on HSC-F cells, pH 7.4
# Experimental: as §1, §2
# [5] = target: T4, human CD3 on CD3+ Jurkat cells (human, UniProt P07766 23-207); assay: flow cytometry, yeast-produced IgG 100 nM on CD3+ Jurkat cells, pH 7.4
# T4 construct: whole, on cells; The whole CD3 complex stands on the cells; also called Human CD3 Jurkat; human CD3+ Jurkat cells
# T4 sequence (P07766 23-207): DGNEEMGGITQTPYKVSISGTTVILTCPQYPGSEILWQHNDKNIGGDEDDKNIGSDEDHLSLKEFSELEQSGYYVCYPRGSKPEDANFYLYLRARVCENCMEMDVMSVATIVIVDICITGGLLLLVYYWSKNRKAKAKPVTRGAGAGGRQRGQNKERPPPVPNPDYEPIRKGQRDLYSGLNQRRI
# Experimental: as §1, §2
# [6] = target: T4, human CD3 on CD3+ Jurkat cells; assay: flow cytometry, yeast-produced IgG 100 nM on CD3+ Jurkat cells, pH 6.0
# Experimental: as §1, §2
# [7] = target: T2, human CD3εδ-Fc heterodimer (Hu CD3ε Fc …); assay: BLI (Octet), yeast-produced IgG on AHC sensor, CD3εδ-Fc 100 nM in solution, pH 6.0
# Experimental: as §3, §4
# [8] = target: T3, cynomolgus CD3εδ-Fc heterodimer (Cy …); assay: as above
# Experimental: as §3, §4
# [9] = target: T2, human CD3εδ-Fc heterodimer (Hu CD3ε Fc …); assay: SPR (Biacore 8K), yeast-produced Fab, monovalent, pH 6.0
# Experimental: (§5) Anti-CD3 antibodies (Antibody Nos. 1-13) were produced as human IgG1 antibodies in yeast or Chinese hamster ovary (CHO) cells, and Fab fragments were generated from the IgG1 antibodies by papain digestion and purified IgGs produced in yeast were aglycosylated. CHO produced IgGs had standard CH2 glycosylation. […] Monovalent binding affinity to human or cynomolgus CD3εδ-Fc at pH 7.4 and pH 6.0 were measured via surface plasmon resonance (SPR) using the BIACORE® 8K (Cytiva, previously GE Healthcare Life Sciences) system and analyzed using BIACORE® Evaluation Software.
# (§6) BIACORE® KD measurements (surface plasmon resonance; SPR). BIACORE® affinity measurements were performed generally as previously described. Briefly, human CD3εδ-Fc heterodimer produced as described above was immobilized to a NiNTA sensor chip in a BIACORE® 8K (Cytiva, previously GE Healthcare Life Sciences) to a response level of ˜500 RUs. […] The sensor chip was doubly regenerated between cycles using 0.35 M EDTA and 0.1 M NaOH. The resulting data were double reference subtracted and fit to a 1:1 binding model using BIACORE® Evaluation Software.
# [10] = target: T2, human CD3εδ-Fc heterodimer (Hu CD3ε Fc …); assay: SPR (Biacore 8K), yeast-produced Fab, monovalent, pH 7.4
# Experimental: as §5, §6
# T1 sequence (Q95LI5 22-198): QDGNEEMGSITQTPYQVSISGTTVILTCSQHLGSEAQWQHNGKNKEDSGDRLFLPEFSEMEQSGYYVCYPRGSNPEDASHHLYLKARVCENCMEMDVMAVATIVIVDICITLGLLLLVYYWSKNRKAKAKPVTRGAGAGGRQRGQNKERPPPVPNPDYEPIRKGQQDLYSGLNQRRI
Binder,NCB [1],Kd [2] [nM],Kd [3] [nM],NCB [4],NCB [5],NCB [6],Kd [7] [nM],Kd [8] [nM],Kd [9] [nM],Kd [10] [nM]
"ADI-79842 (Antibody No. 7), human IgG1 (antibody, V domains shown, Tested as yeast-produced aglycosylated human IgG1) VH: QVQLVQSGAEVKKPGASVKVSCKASGFNIKDYYMHWVRQAPGQRLEWMGWIDLENANTIYDAKFQGRVTITRDTSASTAYMELSSLRSEDTAVYYCARDHYGRYFYDVWGQGTLVTVSS VL: DIVMTQSPDSLAVSLGERATINCKSSQSLLNARTGKNYLAWYQQKPGQPPKLLIYWASTRESGVPDRFSGSGSGTDFTLTISSLQAEDVAVYYCKQSYSRRTFGGGTKVEIK",575,16.1,17.9,172,139,208,6.52,6.88,,
"Fab of ADI-79842 (Antibody No. 7) (Fab, V domains shown, Fab made by papain digestion of the yeast-produced human IgG1; also called Antibody No. 7 Fab; ADI-79842 Fab) VH: QVQLVQSGAEVKKPGASVKVSCKASGFNIKDYYMHWVRQAPGQRLEWMGWIDLENANTIYDAKFQGRVTITRDTSASTAYMELSSLRSEDTAVYYCARDHYGRYFYDVWGQGTLVTVSS VL: DIVMTQSPDSLAVSLGERATINCKSSQSLLNARTGKNYLAWYQQKPGQPPKLLIYWASTRESGVPDRFSGSGSGTDFTLTISSLQAEDVAVYYCKQSYSRRTFGGGTKVEIK",,,,,,,,,6.16,32.6
"ADI-79848 (Antibody No. 9), human IgG1 (antibody, V domains shown, Tested as yeast-produced aglycosylated human IgG1) VH: QVQLVQSGAEVKKPGASVKVSCKASGFNIKDYYMHWVRQAPGQRLEWMGWIDLENANTIYDAKFQGRVTITRDTSASTAYMELSSLRSEDTAVYYCARDAYGRYFYDVWGQGTLVTVSS VL: DIVMTQSPDSLAVSLGERATINCKSSQSLLNARTGHNYLAWYQQKPGQPPKLLIYWASTRESGVPDRFSGSGSGTDFTLTISSLQAEDVAVYYCKQSYSRRTFGGGTKVEIK",550,11.6,14.5,173,136,200,6.47,6.28,,
"ADI-79847 (Antibody No. 13), human IgG1 (antibody, V domains shown, Tested as yeast-produced aglycosylated human IgG1) VH: QVQLVQSGAEVKKPGASVKVSCKASGFNIKDYYMHWVRQAPGQRLEWMGWIDLENANTIYDAKFQGRVTITRDTSASTAYMELSSLRSEDTAVYYCARDHYHRYFYDVWGQGTLVTVSS VL: DIVMTQSPDSLAVSLGERATINCKSSQSLLNARTGHNYLAWYQQKPGQPPKLLIYWASTRESGVPDRFSGSGSGTDFTLTISSLQAEDVAVYYCKQSHSRRTFGGGTKVEIK",2,,,0,0,0,,,,
"ADI-79844 (Antibody No. 10), human IgG1 (antibody, V domains shown, Tested as yeast-produced aglycosylated human IgG1) VH: QVQLVQSGAEVKKPGASVKVSCKASGFNIKDYYMHWVRQAPGQRLEWMGWIDLENANTIYDAKFQGRVTITRDTSASTAYMELSSLRSEDTAVYYCARDAYGRYFYDVWGQGTLVTVSS VL: DIVMTQSPDSLAVSLGERATINCKSSQSLLNARTGKNYLAWYQQKPGQPPKLLIYWASTRESGVPDRFSGSGSGTDFTLTISSLQAEDVAVYYCKQSHSRRTFGGGTKVEIK",603,6.51,5.42,160,147,196,3.6,2.94,,
"Fab of ADI-79844 (Antibody No. 10) (Fab, V domains shown, Fab made by papain digestion of the yeast-produced human IgG1; also called Antibody No. 10 Fab; ADI-79844 Fab) VH: QVQLVQSGAEVKKPGASVKVSCKASGFNIKDYYMHWVRQAPGQRLEWMGWIDLENANTIYDAKFQGRVTITRDTSASTAYMELSSLRSEDTAVYYCARDAYGRYFYDVWGQGTLVTVSS VL: DIVMTQSPDSLAVSLGERATINCKSSQSLLNARTGKNYLAWYQQKPGQPPKLLIYWASTRESGVPDRFSGSGSGTDFTLTISSLQAEDVAVYYCKQSHSRRTFGGGTKVEIK",,,,,,,,,2.34,3.45

# Other lines, results leading:
NCB [1],Kd [2] [nM],Kd [3] [nM],NCB [4],NCB [5],NCB [6],Kd [7] [nM],Kd [8] [nM],Kd [9] [nM],Kd [10] [nM],Binder
235,,,2,4,65,8.09,11.8,,,"ADI-79846 (Antibody No. 12), human IgG1 (antibody, V domains shown, Tested as yeast-produced aglycosylated human IgG1) VH: QVQLVQSGAEVKKPGASVKVSCKASGFNIKDYYMHWVRQAPGQRLEWMGWIDLENANTIYDAKFQGRVTITRDTSASTAYMGLSSLRSEDTAVYYCARDHYGRYFYDVWGQGTLVTVSS VL: DIVMTQSPDSLAVSLGERATINCKSSQSLLNARTGHNYLAWYQQKPGQPPKLLIYWASTRESGVPDRFSGSGSGTDFTLTISSLQAEDVAVYYCKQSHSHRTFGGGTKVEIK"
603,6.64,5.66,174,149,207,1.6,1.76,,,"ADI-79843 (Antibody No. 8), human IgG1 (antibody, V domains shown, Tested as yeast-produced aglycosylated human IgG1) VH: QVQLVQSGAEVKKPGASVKVSCKASGFNIKDYYMHWVRQAPGQRLEWMGWIDLENANTIYDAKFQGRVTITRDTSASTAYMELSSLRSEDTAVYYCARDAYHRYFYDVWGQGTLVTVSS VL: DIVMTQSPDSLAVSLGERATINCKSSQSLLNARTGKNYLAWYQQKPGQPPKLLIYWASTRESGVPDRFSGSGSGTDFTLTISSLQAEDVAVYYCKQSYSRRTFGGGTKVEIK"
581,9.87,8.06,167,149,200,1.04,,,,"ADI-79845 (Antibody No. 11), human IgG1 (antibody, V domains shown, Tested as yeast-produced aglycosylated human IgG1) VH: QVQLVQSGAEVKKPGASVKVSCKASGFNIKDYYMHWVRQAPGQRLEWMGWIDLENANTIYDAKFQGRVTITRDTSASTAYMELSSLRSEDTAVYYCARDAYGRYFYDVWGQGTLVTVSS VL: DIVMTQSPDSLAVSLGERATINCKSSQSLLNARTGKNYLAWYQQKPGQPPKLLIYWASTRESGVPDRFSGSGSGTDFTLTISSLQAEDVAVYYCKQSYSHRTFGGGTKVEIK"
,,,,,,,,0.796,5.9,"Fab of ADI-79843 (Antibody No. 8) (Fab, V domains shown, Fab made by papain digestion of the yeast-produced human IgG1; also called Antibody No. 8 Fab; ADI-79843 Fab) VH: QVQLVQSGAEVKKPGASVKVSCKASGFNIKDYYMHWVRQAPGQRLEWMGWIDLENANTIYDAKFQGRVTITRDTSASTAYMELSSLRSEDTAVYYCARDAYHRYFYDVWGQGTLVTVSS VL: DIVMTQSPDSLAVSLGERATINCKSSQSLLNARTGKNYLAWYQQKPGQPPKLLIYWASTRESGVPDRFSGSGSGTDFTLTISSLQAEDVAVYYCKQSYSRRTFGGGTKVEIK"
